Assay results taken from IntAct's records for PubMed 25517094.

B1: Muscarinic acetylcholine receptor M4 (Homo sapiens), P08173 (parent)
chain: MANFTPVNGSSGNQSVRLVTSSSHNRYETVEMVFIATVTGSLSLVTVVGNILVMLSIKVNRQLQTVNNYFLFSLACADLIIGAFSMNLYTVYIIKGYWPLGAVVCDLWLALDYVVSNASVMNLLIISFDRYFCVTKPLTYPARRTTKMAGLMIAAAWVLSFVLWAPAILFWQFVVGKRTVPDNQCFIQFLSNPAVTFGTAIAAFYLPVVIMTVLYIHISLASRSRVHKHRPEGPKEKKAKTLAFLKSPLMKQSVKKPPPGEAAREELRNGKLEEAPPPALPPPPRPVADKDTSNESSSGSATQNTKERPATELSTTEATTPAMPAPPLQPRALNPASRWSKIQIVTKQTGNECVTAIEIVPATPAGMRPAANVARKFASIARNQVRKKRQMAARERKVTRTIFAILLAFILTWTPYNVMVLVNTFCQSCIPDTVWSIGYWLCYVNSTINPACYALCNATFKKTFRHLLLCQYRNIGTAR
B2: "D(3) dopamine receptor" (Homo sapiens), P35462-1 (parent)
chain: MASLSQLSGHLNYTCGAENSTGASQARPHAYYALSYCALILAIVFGNGLVCMAVLKERALQTTTNYLVVSLAVADLLVATLVMPWVVYLEVTGGVWNFSRICCDVFVTLDVMMCTASILNLCAISIDRYTAVVMPVHYQHGTGQSSCRRVALMITAVWVLAFAVSCPLLFGFNTTGDPTVCSISNPDFVIYSSVVSFYLPFGVTVLVYARIYVVLKQRRRKRILTRQNSQCNSVRPGFPQQTLSPDPAHLELKRYYSICQDTALGGPGFQERGGELKREEKTRNSLSPTIAPKLSLEVRKLSNGRLSTSLKLGPLQPRGVPLREKKATQMVAIVLGAFIVCWLPFFLTHVLNTHCQTCHVSPELYSATTWLGYVNSALNPVIYTTFNIEFRKAFLKILSC
B3: "D(4) dopamine receptor" (Mus musculus), P51436 (parent)
chain: MGNSSATEDGGLLAGRGPESLGTGAGLGGAGAAALVGGVLLIGLVLAGNSLVCVSVASERTLQTPTNYFIVSLAAADLLLAVLVLPLFVYSEVQGGVWLLSPRLCDTLMAMDVMLCTASIFNLCAISVDRFVAVTVPLRYNQQGQCQLLLIAATWLLSAAVASPVVCGLNDVPGRDPAVCCLENRDYVVYSSVCSFFLPCPLMLLLYWATFRGLRRWEAARHTKLHSRAPRRPSGPGPPVSDPTQGPFFPDCPPPLPSLRTSPSDSSRPESELSQRPCSPGCLLADAALPQPPEPSSRRRRGAKITGRERKAMRVLPVVVGAFLVCWTPFFVVHITRALCPACFVSPRLVSAVTWLGYVNSALNPIIYTIFNAEFRSVFRKTLRLRC

Variants of: B1
Conditions: with SH3GL1, Q99961-1
Target sequence in this assay (Q99961 whole entry): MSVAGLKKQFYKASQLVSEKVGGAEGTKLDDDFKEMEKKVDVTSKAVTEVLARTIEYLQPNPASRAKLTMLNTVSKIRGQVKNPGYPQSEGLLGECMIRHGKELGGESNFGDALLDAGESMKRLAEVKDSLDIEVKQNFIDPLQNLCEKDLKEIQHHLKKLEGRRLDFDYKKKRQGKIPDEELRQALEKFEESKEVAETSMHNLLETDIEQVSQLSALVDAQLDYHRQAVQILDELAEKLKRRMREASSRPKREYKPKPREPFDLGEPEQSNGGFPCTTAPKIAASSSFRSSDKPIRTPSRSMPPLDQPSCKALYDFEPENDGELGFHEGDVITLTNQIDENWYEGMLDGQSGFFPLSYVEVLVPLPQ

Variant | effect of a mutation on the interaction
K255E;K256E | decreasing interaction strength
P330E | decreasing interaction strength
R230E | decreasing interaction strength

Variants of: B2
Conditions: with SH3GL1, Q99961-1
Target sequence in this assay (Q99961 whole entry): as above

Variant | effect of a mutation on the interaction
R318E | decreasing interaction strength
K293E | decreasing interaction strength

Variants of: B3
Conditions: with SH3GL1, Q99961-1
Target sequence in this assay (Q99961 whole entry): as above

Variant | effect of a mutation on the interaction
P230A;P233A | decreasing interaction strength
R231D;R232E | disrupting interaction strength
